Test results from PMC5469197, “ANGUSTIFOLIA, a Plant Homolog of CtBP/BARS Localizes to Stress Granules and Regulates Their Formation” (Frontiers in Plant Science, 2017).

Target: T1, RNA BINDING PROTEIN 47C (RBP47C), Prot-A fusion (Arabidopsis thaliana, UniProt Q9SX79 1-432)
T1 construct: RBP47C, Arabidopsis thaliana, AT1G47490; CDS amplified from Col-0 cDNA; source: HEK293TN cells, transfected; not shown: Protein A (Staphylococcus aureus), N-terminal, kept
T1 sequence (looked up): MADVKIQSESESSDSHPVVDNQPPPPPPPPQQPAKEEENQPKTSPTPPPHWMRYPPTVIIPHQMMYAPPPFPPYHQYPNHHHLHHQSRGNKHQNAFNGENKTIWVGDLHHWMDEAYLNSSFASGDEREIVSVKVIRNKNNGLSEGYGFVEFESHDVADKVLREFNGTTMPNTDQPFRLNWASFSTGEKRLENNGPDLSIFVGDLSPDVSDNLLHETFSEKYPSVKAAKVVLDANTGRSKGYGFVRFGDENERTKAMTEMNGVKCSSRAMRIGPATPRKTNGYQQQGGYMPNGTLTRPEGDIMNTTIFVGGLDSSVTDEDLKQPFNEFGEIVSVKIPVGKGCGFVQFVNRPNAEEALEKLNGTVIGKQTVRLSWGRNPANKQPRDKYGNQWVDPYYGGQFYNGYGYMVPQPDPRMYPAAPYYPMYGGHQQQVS
Experiment: co-IP; LUMIER in HEK293TN cells: Prot-A fusion co-transfected with Renilla luciferase fusion (AN always the luciferase fusion with the interactors); luciferase activity before (input) and after pulldown; percentage pulldown = pulldown/input x 100; empty vectors as negative control; positive if more than two times the background
Details: partners not purified

fold change from background: 4.97 fold | percentage pulldown: 0.46%
B1: AN, Renilla luciferase fusion (LUMIER) (natural protein, Arabidopsis thaliana, UniProt O23702 1-636, looked up)
chain: MSKIRSSATMPHRDQPSPASPHVVTLNCIEDCALEQDSLAGVAGVEYVPLSRIADGKIESATAVLLHSLAYLPRAAQRRLRPHQLILCLGSADRAVDSTLAADLGLRLVHVDTSRAEEIADTVMALILGLLRRTHLLSRHALSASGWLGSLQPLCRGMRRCRGMVLGIVGRSVSARYLASRSLAFKMSVLYFDVPEGDEERIRPSRFPRAARRMDTLNDLLAASDVISLHCALTNDTVQILNAECLQHIKPGAFLVNTGSCQLLDDCAVKQLLIDGTIAGCALDGAEGPQWMEAWVKEMPNVLILPRSADYSEEVWMEIREKAISILHSFFLDGVIPSNTVSDEEVEESEASEEEEQSPSKHEKLAIVESTSRQQGESTLTSTEIVRREASELKESLSPGQQHVSQNTAVKPEGRRSRSGKKAKKRHSQQKYMQKTDGSSGLNEESTSRRDDIAMSDTEEVLSSSSRCASPEDSRSRKTPLEVMQESSPNQLVMSSKKFIGKSSELLKDGYVVALYAKDLSGLHVSRQRTKNGGWFLDTLSNVSKRDPAAQFIIAYRNKDTVGLRSFAAGGKLLQINRRMEFVFASHSFDVWESWSLEGSLDECRLVNCRNSSAVLDVRVEILAMVGDDGITRWID
notes: ANGUSTIFOLIA (AN), Arabidopsis thaliana, AT1G01510; CDS amplified from Col-0 cDNA; in the dimerisation test the second copy must have been the N-terminal protein A fusion (surmised from the LUMIER format); also called wild-type AN; source: HEK293TN cells, transfected; not shown: Renilla reniformis luciferase, N-terminal, kept
